Measurements: the nanobody polyreactivity screen of Harvey et al. (2022)

Assay: yeast display, Sf9 membrane polyspecificity reagent, FACS + sequencing; frameworks hold sequencing errors
How it was run: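 Genes from sorted yeast were amplified by colony PCR, read by MiSeq 2 × 250 sequencing and filtered on CDR length. These cells carried a synthetic nanobody library in Saccharomyces cerevisiae BJ5465 and were sorted by FACS into low and high (top ~1%) gates on anti-HA and streptavidin fluorescence. Polyreactivity is labelled according to the gate of origin.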

Sequence	polyreactivity (PSR sort gate)
QVQLVESGGGLVQAGGSLRLSCAASGSIFFRYAMGWYRPAPGKERELVAAISSDGSTYYADSVKGRFTISRDNAKNTVYLQMNSLKPEDTAVYYCNAEQAIFYWYATVTYDYWGQGTQVTVSS	low polyreactivity
QVQLVESGGGLVQAGGSLRLSCAASGSIFRSYAMGWYRQAPGKERELVSAIRGSDGNTYYADSVKGRFTISRDNAKNTVYLQMNSLKPEDTAVYYCNARSYGYRTSRARYNYWGQGTQVTVSS	high polyreactivity
QDQLVESGGGLVQAGGRLRLSCAASGRIIRTYARGWDRQAPGKERELVAAITNGDSTNYADSVMGRFTMSRDNAKNTVYLQMNSLKPEDTAVYYCAVGAVVPGRRRRTYYYWGQGTQVTVSS	high polyreactivity
QVQLVESGGGLVQAGGSLRLSCAASGIIFGRNVMGWYRQAPGKERELVAAITRRGVNTYYADSVKGRFTISRDNAKNTVYLQMNSLKPEDTAVYYCAATWWQYDQGLHRYDYWGQGTQVTVSS	high polyreactivity
QVQLVESGGGLVQAGGSLRLSCAASGIILYVNAMGWYRQAPGKERELVAAISWGGGSTYYADSVKGRFTISRDNAKNTVYLQMNSLKPEDTAVYYCAAEFWSGYPTYTYDYWGQGTQVTVSS	low polyreactivity
QVQLVESGGGLVQAGGSLRLSCAASGRTFGRNAMGWYRQAPGKVRELVAAINSDGSTYYADSVKGRFTISRDNAKNTVYLQMNSLKPEDTAVYYCAADTWVWTDYFRRFEYWGQGTQVTVSS	high polyreactivity
QVHLVESGGGLVQAGVSLRLSCAASGFTFYRNAMGWYRQAPGKERELVAAISSRGGSTYYADSVKGRFTISRYNANNTVYFQMNSLKPEDTAVYYCAAYGNYNEYDYWGPGTQVTVSS	high polyreactivity
QVQLVESGGGLVQAGGSLRLSCAASGNTFRWYVMGWYRQAPGKERELVAAITSSGSTTYYADSVKGRFTISRDNAKNTVYLQMNSLKPEDTAVYYCAARNYGPYDYWGQGTQVTVSS	low polyreactivity
QVQLVESGGGLVQAGGSLRLSCAASGSIFTHYAMGWYRPAPGKERELVATISNGDGSTYYADSVKGRFTISRDNAKNTVYLQMNSLKPEDTAVYYCNVDDFSQYADDSWGYEYWGQGTQVTVSS	low polyreactivity
QVQLVESGVGLDQAGGSLRLSCAASGSIFIINAMGLYRQAPGKERELVARISNGGNTYADSVKGRFTISRDNAKNTVYLQMKSLKPEDTAVYYCAARAYARRPKYVPKFDYWGQGTQVTVSS	high polyreactivity
QVQLVESGGGLVQAGGSLRLSCAASGSTFYPNAMGWYRQAPGKEREFVAAITWSGGRTYYADSVKGRFTISRDNAKNTVYLLMNSLKPEDTAVYYCAVGGNSRRYWGQGTQVTVSS	high polyreactivity
QVQLVESGGGLVQAGGTLRLSCAASGSIFIPYAMGWYRQEPGKERELVAAISGSGTSTNYADSVKGRFTISRDNAKITVYFQMISLKPEDTAVYYCAKGYSNFYRSDYWGQGTQVTVSS	high polyreactivity
QVQLVESGGGLVQAGGSLRLSCAASGSIFWRYSMGWYRQAPGKERELVAAINYSTTRTYYADSVKGRFTISRDNAKNTVYLQMNSLKPEDTAVYYCAADSRVDEGEYWGQGTQVTVSS	high polyreactivity
QVHLVESGGGLVKAGGSLRLSCSASGSIFTYNAMGWYRQAPGKERELVAAISSRGTSTYYSDSVKGRFTISRDNAKNTVYLQMNSLKPEDTAVYYCAAVWVSQRRPWGNTNNYWGQGTQVTVSS	high polyreactivity
QVQLEESGGGLVQAGGSLRLSSAASGSTFCWYAMGGYRKEPGKERELVAAISIGGSTKYADSVKGRLTISRDNAKNSVYLQMNRMKPEYSAVYYCAAEVSYHYVPYGYWGQGTQVTVSS	low polyreactivity
QVQLVESGGGLVQAGGSLRLSCAASGGTFVSYAMGWYRQAPGKERELVAAITYSGGSTYYADSVKGRFTISRDNAKNTVYLQMNSLKPEDTGVYYCAAPKFSYFSYSPRGKFKYEYWGQGTQVTVSS	low polyreactivity
QVQLVESGGGLVQAGGSLRLSCADSGRTFRANAMGWYRQAPGKERELVAAITSTGDRTYYADSVKGRFTISRDNAKNTVYLQMNSLKPEDTAVYYGNAVYDLYHYWKFYYWGQGTQVTVSS	low polyreactivity
QVQLVESGGGLVQAGGSLRLSCAASGYIFYYNGMGWYRQAPGKERELVAVISRRGGSTYYADSVKGRFTISRDNAKNTVYLQMNSLKPEDTAVYYCNARARSSRTYKYDYWGQGTQVTVSS	high polyreactivity
QVQLVESGGGLVQAGGSLRLSCSASGITFGRNTKGWYRQAPGKERELVAASDSGGNTYADSVKGRFTISRDNAKNTVYLQMNSLKPEDTAVYYCAVDGGEFSSYGYWGQGTQVTVSS	low polyreactivity
QVQLHESGGGLVQAGGSLRMSCAASGTISYAGPMGWYLQATGKESEFVAGIGVGSNTNYADSVKGRYTIIRDNAINTLYLQLNSLQPEDTAVYYGAVGGYAPLGRPYWGQGTQVTVRS	low polyreactivity
QVQLVESGGGLVQAGGSLRLSCAASGSIFPPNAMGWYRQAPGKEREFVATITGRGGRTYYADSVKGRFTISRDNAKNTVYLQMNSLKPEDTAVYYCAARYTTSSRAKIEYDYWGQGTQVTVSS	high polyreactivity
QVLLQESGGGLVQAGGSLRLSCAAIGTISTDIRMGWYRLAPGKEREFVASIDGCSTTYYADSVTGRFTISRDNAKNTVYLQMNSLKPEDTAMFYCAAREATEFYLYYWGQGTQVTVSS	low polyreactivity
